This series is described as follows: yeast display, Sf9 membrane polyspecificity reagent, FACS + sequencing; frameworks hold sequencing errors. A digest of the protocol:
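Polyreactivity labels are assigned by the sorting gate from which each nanobody was recovered. The gates were low and high (top ~1%), set on anti-HA fluorescence for expression and streptavidin fluorescence for reagent binding. Before sorting, galactose-induced (36–48 hours) yeast display cells were stained for 1 hour at 4 °C with 10% biotinylated, detergent-solubilized Sf9 membrane reagent.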
Consider “QVQLQESGGGLVQARGSLRLICAASGNISVTGFMGWYRQAPCKERELVASIGIGGTTYYADSVKGRFSISRDNAKNTVYLQMNSLKPEDTAVYYCAARYLYYAYSYWGQGTQVTVIS”, for which the “polyreactivity (PSR sort gate)” value was “low polyreactivity”.
For “QVQLVESGGGLVQAGGSLRLSCAASGSTFPYNAMGWYSPAPGKERELVAAITSAGGTNYADSVKGRFTISRDNATNTVYLQMNSLKPEDTAVYYCAADGSGYYDWYYYWGQGTQVTVSS”, the “polyreactivity (PSR sort gate)” value is on record as “low polyreactivity”.
As to “QVQLVETGGGLVQAGGSLRLSSAASGIIFKTYAMGWYRQARGKERELLAGIDYSGGGTSYADSVKGRFTISRDNAKNTVYLQMNSLKPEDTAVYYCNAEWWSWGSDSYTYDYPETYDYRGQGTQVTVSS”, the “polyreactivity (PSR sort gate)” value is recorded as “low polyreactivity”.
For the sequence “QVQLVESGGGLVQAGGSLRLSCAASGSIFYSYAMGWYRQAPGKERELVAAISSGGRTKYADSVKGRFTISRDNAKNTVYLQMNSLKPEDTAVYYCAASDRYGGRDYWGQGTQVTVSS”, the “polyreactivity (PSR sort gate)” value is “high polyreactivity”.
The result for “QVQLVESGGGLVQAGGSLRLSCAASGRIFYGYAMGWYRQAPGKERELVAAITRGVSTYYADSVKGRFTISRDNAKNTVYLQMNSLKPEDTAVYYCAKDRRVRMDSWGQGTQVTVSS” reads “low polyreactivity”.
Regarding “QVQLVESGGGLVQAGGSLRLSCAASGRIFSGYAMGWYRQAPGKERELVATITSGGGTYYADSVKGRFTISRDNAKNTVYLQMNSLKPEDTAVYYCNAEKKGSFRKYNYWGQGTQVTVSS”, the “polyreactivity (PSR sort gate)” value was “low polyreactivity”.
Regarding “QVQLVESGGGLVQAGGSLRLSCAASGFILRTNAMGWYRQAPGKERELVAAISVSGGRTYYADSVKGRFTISRDNAKNTVYLQMNSLKPEDTAVYYCAARDSTKLLSGYTHYYWGQGTQVTVSS”, the “polyreactivity (PSR sort gate)” value is listed as “high polyreactivity”.
Take “QVQLVESGGGLVQAGGSLRLSCAASGSIFGGNAMGWSRQAPGKERELVAVITSGGSTYYADSVKGRFTISRDNAKNTVYLQMNSLKPEDTAVYYCNVDRLARKAHYDYWGQGTQVTVSS”: the “polyreactivity (PSR sort gate)” value was “high polyreactivity”.
As for “QVQLVESGGGLVQAGGSLRLSCAASGFIFKSNGMGRYRPEPGKERELVSAIRRSGGSTYYADSVKGRFSISRDYAKNTFYLQMNSLKPEVTAVYYCGIRRGVYTHWYDYWGQGTQVTVSS”, the “polyreactivity (PSR sort gate)” value was “high polyreactivity”.
With “QVQLVESGGGLVQAGGSLSLSCAASGFTFYENAMGWYRQAPGKERELVATISYSGGTTYYADSVKGRFTISRDNAKNTVYLQMNSLKPEDTAVYYCNADYFYYGFPDDYWGQGTQVTVSS”, the “polyreactivity (PSR sort gate)” value is reported as “low polyreactivity”.
Regarding “QVQLVESGGGLVQAGGSVRLSCAASGFIFWYSAMGWYRQAPGKERELVAAISGTGGTTYYADSVKGRFTISRDNAKNTVYLQMNSLKPEDTAVYYCNFRYDSRRTAIGYAYWGQGTQETVSS”, the “polyreactivity (PSR sort gate)” value is “low polyreactivity”.
Take “QVQLVESGGGLVQAGGSLRLSCAASGITFVFYAMGWYRQAPGKERELVATISYRGTSTYYADSVKGRFTISRDNAKNTVYLQMNSLKPEDTAVYYCAADTYIYYKTGYGYWGQGTQVTVSS”: the “polyreactivity (PSR sort gate)” value is recorded as “low polyreactivity”.
The result for “QVQLVESAGGLVQAGGSLRLSCAASGSTFRLNTMGWYRQEPGNERELVAGISYSGGSTYYADSVNGRFTISRDNAKNTVYLQMNSLKPEDTAVYYCNKRAWFSSKDDYWGQGTQVTVSS” reads “high polyreactivity”.
Turning to “QVQLVESGGGLVQAGGSLRLSCASSGITFRRYTMVWYRQAPGKERELVAAISRIGGSTYYADSVKGRFTISRDNAKNTVYLQMNSLKPEDTAVYYCATYYGGSGYDYWGQGTEVTVSS”, the “polyreactivity (PSR sort gate)” value is listed as “high polyreactivity”.
Consider “QVQLVESGGGLVQAGGSLRLSCAASGSTFYDNAKGWYRQAPGKERELVAGITESGGSTYYADSVKGRFTISRDNAKNTVYLQMNSLKPEDTAVYYCAAVYTYIPYLTYYYWGQGTQVTVSS”, for which the “polyreactivity (PSR sort gate)” value is “low polyreactivity”.
Turning to “QVQLVESGGGLVQAGGSLRLSCAASGGIFASNAMGWYRQAPGKERELVATITRGGSTNYADSVKGRFTISRDNAKNTVYLQMNSLKPEDTAVYYCAARFYSRAFWTAYYYWGQGTQVTVSS”, the “polyreactivity (PSR sort gate)” value is on record as “high polyreactivity”.
As for “QFQLEESAGGLVQAGGSLRLSCAASGRTFADYAMGWYRPAPGKETELVAAISSGGSTYFAVSVKGRFTISRDNAKNTVYLQMNSLKPEDTAVYYCTARWGYRLGYWGQGTQVTVSS”, the “polyreactivity (PSR sort gate)” value is listed as “high polyreactivity”.
“QVQLVESAGGLVQAGGSLRLSCAASGRTLSNYAMGWYREAPGKERELVAVISQSGGRTYYADSVKGRFTISRDNAKNTVYLQLNSLKPEDTAVYYCNVDISWLRRKFDYWGQVTQVTVSS”: the “polyreactivity (PSR sort gate)” value is “low polyreactivity”.
On to “QVQLVESGGGLVQAGGSLRLSCAASGRTFTRYAMGWYRQAPGKERELVATITRGGSTNYADSVKGRFTISRDNAKNTVYLQMNSLKPEDTAVYYCAAGYFIRTRSRYRYDYWGQCTQVTVSS”, for which the “polyreactivity (PSR sort gate)” value is “high polyreactivity”.
“QVQLVESGGGLVQAGGSLRLSCAASGSTFGLNAMGWYRQAPGKERELVAAISTSGGSTYYADSVKGRFTISRDNAKNTVYLQMNSLKPEDTAVYYCAAEVVAGYDYSQYYYWGQGTQVTVSS”: the “polyreactivity (PSR sort gate)” value was “low polyreactivity”.
The value for “QVQLVESGGGLVQAGGSLRLSCAASGITFSLYAMGWYRQAPGKERELVAAISKSGGSTYYADSVKGRFTISRDNAKNTVYLQMNSLKPEDTAVYYCAADFVSKTPWHAQDDYWGQGTQVTVSS” was “low polyreactivity”; that for “QVQLVESGGGLVQAGGSLRLSCAASGFTFNRYAMGWYRQAPGKEREFVAAITRRGGNTYYADSVKGRFTISRDNAKNTVYLQMNSLKPEDSAVYYCNAVFGPSSYGAKEYDYWGQGTQVTVSS” was “high polyreactivity”; that for “QVQHVESGGGIVQAGGSLRLSCAASGIIFIGNAMGWYRQAPGKERELVAAITYTGGSTYYADSVKGRFTISRDNAKNTVYLQMNSLKPEDTAVYYCAVDRTHLEDDYWGQGTQVTVSS” was “low polyreactivity”.
Consider “QVQLQESGGGLVQAGGSLRLSCAASGTISPLPAMGWYRQAPGKERDFVAGIDTGAITNYADSVKGRFTISRDNAKHTVYLQMNSLKPEETAVYYCADFPAAYDYYERYYTYWGQGTQVTVSS”, for which the “polyreactivity (PSR sort gate)” value is reported as “low polyreactivity”.
For “QVHLVESGGGLVQAGGSLRLSCAASGTTFGVYALGWYRQAPGKERELVAVITSRGGSTYYADSVKGRFTISRDNAKNTVYLQMNSLKPEDSAVYYCNTSTSRVPGNGEYWGQGTQVTVSS”, the “polyreactivity (PSR sort gate)” value is “high polyreactivity”.
The value for “QVQLVESGGGLVQAGGSLRLSCAASGYTFSPNDMGWYRKAPGKERELVAAITSSVGSTYYADSVKGRFTISRDNAKNTVYLQMNSLKPEDTAVYYCARTYQVGDSIDDYWGQGTQVTVSS” was “low polyreactivity”; that for “QVQLVESGGGLVQAGGSLRLSCAASGRIFGRYAMGWYRQAPGKERELVAVISARGARTYYADSVKGRFTISRDNAKNTVYLQRNSLKPEDTAVYYCAVDQYATDDYWGQGTQVTVSS” was “high polyreactivity”; that for “QVQLVESGGGLVQAGGSLRLSCAASGRTFFSNAMGWYRQAPGKERELVAAISNGDNTYFADSVKGRFTISRDNAKNTVYLQMNSLKPEDTAVYYCNTVRRSYWSWSTENSDYWGQGTQVTVSS” was “low polyreactivity”.
Take “QVQLVVSGGGLVQAGGSLRLSCAASGRIFLWNAMGWYRQAPGKERDLVAAISSGGGTNYADSVKGRFTISRDNAKNSVYLQMNSLKPEDTAVYYCAARRTYRFGWGQGTQVTVSS”: the “polyreactivity (PSR sort gate)” value is recorded as “high polyreactivity”.
“QVQLVESGGGLVQAGGSLRLSCAASGRIFYGYAMGWYRQAPGKERELVAGISYRGARTYYADSVKARFTISRDNAKNTVYLQMNSLKPEDTAVYNCNAVPYYPFAFGALDYSGQGTQVTVSS”: the “polyreactivity (PSR sort gate)” value was “high polyreactivity”.
Take “QVQLVESGGGLVQAGGSLRLSCAASGSIISGYAMGWYRQAPGKERELVASISSSGGRTYYAYSVKGRYTISRDNAKNTVYLPRNSLKPEDTAVYYCNVKSYTYGYLPYDYWGQGTQVTVSS”: the “polyreactivity (PSR sort gate)” value is recorded as “high polyreactivity”.
The value for “QVQLVESGGGLVQAGGSLRLICAASGRIFSSYAMGWYRQAPGKERELVAAISRGGGRTYYADSVKGRFTISRDNAKNTVYLQMNSLKPEDTAVYYCAVRLYYSIRYYYWGQGTQVTVSS” was “high polyreactivity”; that for “QVQLVESGGGLVQAGGSLRLSCAASGFIFYKYAMGWYRQAPGKERELVARISISGGRTYYADSVKGRFTISRDNAKNTVYLQMNSLKPEDTAVYYCATSPWWYGYAAYGMDYWGQGTQVTVSS” was “low polyreactivity”.
As for “QVPLVESGGGLVQAGGSLRLSCAASGITIRGYAMGWYRQAPGKDRELVAAINTRTSTYYADSVKGRFTISRDNAKHTVYLQMNSLKPEDTAVYYCNRDPVYYDYDYWGQGTQVTVSS”, the “polyreactivity (PSR sort gate)” value is reported as “low polyreactivity”.
The result for “QVQLVESGGGLVQAGGSLRLSCAASGFIFQWYAMGWYRPAPGKERELVAGISAGSTNYADSVKGRFTISRDNAKNTVYLQMNSLKPEDTAVYYCAARDYYIPYYSPGYPYDYWGQGTQVTVSS” reads “high polyreactivity”; that for “QVQLVESGGGLVQAGGSLRLSCAASGFIFKLNAMGWYRQAPGKERELVATITRGGDTKYADSVKGRFTISRDNAKNTVYLQMNSLKPEDTAVYYCAAGYPYSYRDYYYWGQGTQVTVSS”, “high polyreactivity”.
Take “QVQLVESGGGLVQAGGSLRLSCAASGFIFYGYAMGWYSQAPGKERELVAGISTGGSTNYADSVKGRFTISRDNAKNTVYLQMNSLKPEDTAVYYCAKRAYFYYGRYDYWGQGTQVTVSS”: the “polyreactivity (PSR sort gate)” value is listed as “low polyreactivity”.
In the case of “QVQLVESGGGLVQAGGSLRLSCAASGITFAPYAMGWYRQAPGKERELVAVISSGGSTKYADSVKGRFTISRDNAKNTVYLQMNSLKPEDTAVYYCAASAPRGYGYKYYYWGQGTQVTVSS”, the “polyreactivity (PSR sort gate)” value was “high polyreactivity”.
“QDQLVESGGCLVQAGGSLRLSCAASGSIFKRNAMGWYRQAPGKERELVASISWSGTRTYYADSVKGRFTISRDNAKNTVYLQMNSLKPEDTAVYYCARRIYGGHPSQSTQGDFYYWGHGTQVTVSS”: the “polyreactivity (PSR sort gate)” value is listed as “high polyreactivity”.
Turning to “QVQLVESGGRLVQAGGSRRLSCAASGSIFYRNAKRSYRQAPGKERELVAAISGRGGSTNYADSVKGRFTISRDNAKNTVYLQMNSLKPEDTAVYYCNRYGVSNILVRGGYWGQGTQVTVSS”, the “polyreactivity (PSR sort gate)” value was “high polyreactivity”.
The value for “QVQLVESGGGLVQAGGSLRLSCAASGSTFYYNAMGWYRQAPGKERELVAVITLNGGRTSYADSVKGRFTISRDNAKNTVYLQMNSLKPEDTAVYYCAADRYRGYGYWGQGTQVTVSS” was “low polyreactivity”.

For the origin of these results see the nanobody polyreactivity screen of Harvey et al. (2022).
